Among the data in patent US20150344570A1 (published 2015) are Ho/Con_2b values, retold here.

First the molecules themselves.
B1: GpH7-B3 variant G237_15Y/GpL16-k0 (antibody, human IgG1, kappa)
heavy: not shown
light: DIVMTQSPLSLPVTPGEPASISCQASESLVHSNRNTYLHWYLQKPGQSPQLLIYKVSNRFSGVPDRFSGSGSGTDFTLKISRVEAEDVGVYYCSQNTHVPPTFGQGTKVEIERTVAAPSVFIFPPSDEQLKSGTASVVCLLNNFYPREAKVQWKVDNALQSGNSQESVTEQDSKDSTYSLSSTLTLSKADYEKHKVYACEVTHQGLSSPVTKSFNRGEC
notes: also called Ho Ab G237_15Y
B2: GpH7-B3 variant N325_20W/GpL16-k0 (antibody, human IgG1, kappa)
heavy: not shown
light: B1 light
notes: also called Ho Ab N325_20W
B3: GpH7-B3 variant P238_15Y/GpL16-k0 (antibody, human IgG1, kappa)
heavy: not shown
light: B1 light
notes: also called Ho Ab P238_15Y
B4: GpH7-B3 variant I332_14T/GpL16-k0 (antibody, human IgG1, kappa)
heavy: not shown
light: B1 light
notes: also called Ho Ab I332_14T
B5: GpH7-B3 variant L235_20W/GpL16-k0 (antibody, human IgG1, kappa)
heavy: not shown
light: B1 light
notes: also called Ho Ab L235_20W
B6: GpH7-B3 variant H268_15Y/GpL16-k0 (antibody, human IgG1, kappa)
heavy: not shown
light: B1 light
notes: also called Ho Ab H268_15Y
B7: GpH7-B3 variant I336_06M/GpL16-k0 (antibody, human IgG1, kappa)
heavy: not shown
light: B1 light
notes: also called Ho Ab I336_06M
B8: GpH7-B3 variant N325_13S/GpL16-k0 (antibody, human IgG1, kappa)
heavy: not shown
light: B1 light
notes: also called Ho Ab N325_13S
B9: GpH7-B3 variant N325_01G/GpL16-k0 (antibody, human IgG1, kappa)
heavy: not shown
light: B1 light
notes: also called Ho Ab N325_01G
B10: GpH7-B3 variant N325_08L/GpL16-k0 (antibody, human IgG1, kappa)
heavy: not shown
light: B1 light
notes: also called Ho Ab N325_08L
B11: GpH7-B3 variant N325_09D/GpL16-k0 (antibody, human IgG1, kappa)
heavy: not shown
light: B1 light
notes: also called Ho Ab N325_09D
B12: GpH7-B3 variant H268_05P/GpL16-k0 (antibody, human IgG1, kappa)
heavy: not shown
light: B1 light
notes: also called Ho Ab H268_05P
B13: GpH7-B3 variant L235_04F/GpL16-k0 (antibody, human IgG1, kappa)
heavy: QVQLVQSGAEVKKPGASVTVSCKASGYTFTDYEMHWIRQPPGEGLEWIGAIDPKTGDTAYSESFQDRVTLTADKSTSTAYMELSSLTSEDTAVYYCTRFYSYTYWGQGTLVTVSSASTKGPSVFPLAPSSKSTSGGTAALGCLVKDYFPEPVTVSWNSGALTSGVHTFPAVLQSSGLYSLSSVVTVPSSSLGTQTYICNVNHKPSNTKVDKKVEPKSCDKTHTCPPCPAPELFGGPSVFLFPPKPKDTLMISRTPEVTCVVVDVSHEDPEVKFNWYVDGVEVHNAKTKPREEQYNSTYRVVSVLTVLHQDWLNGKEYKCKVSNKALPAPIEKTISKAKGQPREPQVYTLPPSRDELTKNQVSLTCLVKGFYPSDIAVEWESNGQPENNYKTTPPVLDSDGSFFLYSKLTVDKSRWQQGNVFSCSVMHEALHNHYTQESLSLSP
light: B1 light
notes: also called Ho Ab L235_04F
B14: GpH7-B3 variant P331_10E/GpL16-k0 (antibody, human IgG1, kappa)
heavy: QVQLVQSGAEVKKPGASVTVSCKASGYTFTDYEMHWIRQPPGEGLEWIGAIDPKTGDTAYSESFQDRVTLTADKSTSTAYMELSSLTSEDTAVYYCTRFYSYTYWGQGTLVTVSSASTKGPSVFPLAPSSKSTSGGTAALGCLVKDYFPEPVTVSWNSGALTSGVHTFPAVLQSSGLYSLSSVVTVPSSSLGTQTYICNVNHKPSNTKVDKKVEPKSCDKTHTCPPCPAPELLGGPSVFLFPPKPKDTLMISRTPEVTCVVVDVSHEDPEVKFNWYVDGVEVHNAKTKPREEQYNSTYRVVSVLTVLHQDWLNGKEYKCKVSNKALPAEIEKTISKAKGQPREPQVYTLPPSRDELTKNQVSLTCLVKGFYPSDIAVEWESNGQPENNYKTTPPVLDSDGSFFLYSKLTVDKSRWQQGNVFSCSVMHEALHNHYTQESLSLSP
light: B1 light
notes: also called Ho Ab P331_10E
B15: GpH7-B3 variant P238_10E/GpL16-k0 (antibody, human IgG1, kappa)
heavy: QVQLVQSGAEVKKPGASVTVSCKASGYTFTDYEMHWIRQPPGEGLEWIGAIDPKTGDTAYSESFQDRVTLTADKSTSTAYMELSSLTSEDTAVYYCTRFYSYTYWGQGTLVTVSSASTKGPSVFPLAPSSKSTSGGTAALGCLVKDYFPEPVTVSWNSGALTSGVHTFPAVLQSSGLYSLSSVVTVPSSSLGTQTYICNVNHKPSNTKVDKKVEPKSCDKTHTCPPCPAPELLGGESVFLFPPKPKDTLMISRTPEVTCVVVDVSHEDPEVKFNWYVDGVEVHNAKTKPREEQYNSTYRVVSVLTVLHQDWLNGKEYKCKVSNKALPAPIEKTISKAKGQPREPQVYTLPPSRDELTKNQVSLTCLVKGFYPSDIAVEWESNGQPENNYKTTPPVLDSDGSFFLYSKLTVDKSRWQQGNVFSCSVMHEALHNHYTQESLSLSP
light: B1 light
notes: also called Ho Ab P238_10E
B16: GpH7-B3 variant L328_09D/GpL16-k0 (antibody, human IgG1, kappa)
heavy: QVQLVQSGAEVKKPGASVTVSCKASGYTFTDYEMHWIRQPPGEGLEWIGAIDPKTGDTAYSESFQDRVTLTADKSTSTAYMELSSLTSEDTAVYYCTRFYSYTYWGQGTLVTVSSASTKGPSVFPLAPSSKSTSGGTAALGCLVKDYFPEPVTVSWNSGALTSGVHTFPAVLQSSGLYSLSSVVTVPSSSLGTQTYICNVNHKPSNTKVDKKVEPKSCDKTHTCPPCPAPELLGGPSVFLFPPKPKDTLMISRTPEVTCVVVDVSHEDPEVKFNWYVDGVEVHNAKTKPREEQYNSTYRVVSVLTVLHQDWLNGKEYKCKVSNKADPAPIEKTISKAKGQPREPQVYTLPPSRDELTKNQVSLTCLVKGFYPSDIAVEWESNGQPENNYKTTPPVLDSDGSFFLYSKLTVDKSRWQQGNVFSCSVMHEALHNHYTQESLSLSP
light: B1 light
notes: also called Ho Ab L328_09D
B17: GpH7-B3 variant K326_08L/GpL16-k0 (antibody, human IgG1, kappa)
heavy: not shown
light: B1 light
notes: also called Ho Ab K326_08L
B18: GpH7-B3 variant L328_13S/GpL16-k0 (antibody, human IgG1, kappa)
heavy: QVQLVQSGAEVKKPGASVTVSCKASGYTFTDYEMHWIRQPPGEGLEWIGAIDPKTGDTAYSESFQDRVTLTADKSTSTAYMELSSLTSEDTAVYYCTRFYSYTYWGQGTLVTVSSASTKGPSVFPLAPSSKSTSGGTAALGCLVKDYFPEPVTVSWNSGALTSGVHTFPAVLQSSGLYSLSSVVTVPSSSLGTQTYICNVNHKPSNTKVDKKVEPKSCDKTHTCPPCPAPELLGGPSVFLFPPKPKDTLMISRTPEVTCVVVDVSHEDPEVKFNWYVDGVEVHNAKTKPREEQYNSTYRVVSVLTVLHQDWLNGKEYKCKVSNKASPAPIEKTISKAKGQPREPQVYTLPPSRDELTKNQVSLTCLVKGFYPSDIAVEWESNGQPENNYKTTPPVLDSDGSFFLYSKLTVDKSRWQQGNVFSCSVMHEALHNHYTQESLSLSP
light: B1 light
notes: also called Ho Ab L328_13S
B19: GpH7-B3 variant L234_10E/GpL16-k0 (antibody, human IgG1, kappa)
heavy: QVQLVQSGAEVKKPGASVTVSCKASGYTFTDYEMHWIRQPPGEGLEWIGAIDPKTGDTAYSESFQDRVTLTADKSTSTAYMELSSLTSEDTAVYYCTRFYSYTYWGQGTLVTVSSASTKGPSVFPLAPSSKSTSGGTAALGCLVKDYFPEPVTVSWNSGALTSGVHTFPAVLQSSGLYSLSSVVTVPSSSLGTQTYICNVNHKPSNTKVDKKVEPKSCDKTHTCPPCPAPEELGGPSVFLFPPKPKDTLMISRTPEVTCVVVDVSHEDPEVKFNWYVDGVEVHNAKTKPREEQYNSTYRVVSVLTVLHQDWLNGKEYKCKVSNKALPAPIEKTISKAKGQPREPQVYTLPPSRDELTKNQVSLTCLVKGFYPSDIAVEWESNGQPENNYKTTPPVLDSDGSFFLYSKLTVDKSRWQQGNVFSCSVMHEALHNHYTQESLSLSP
light: B1 light
notes: also called Ho Ab L234_10E
B20: GpH7-B3 variant L328_02A/GpL16-k0 (antibody, human IgG1, kappa)
heavy: not shown
light: B1 light
notes: also called Ho Ab L328_02A
B21: GpH7-B3 variant P271_10E/GpL16-k0 (antibody, human IgG1, kappa)
heavy: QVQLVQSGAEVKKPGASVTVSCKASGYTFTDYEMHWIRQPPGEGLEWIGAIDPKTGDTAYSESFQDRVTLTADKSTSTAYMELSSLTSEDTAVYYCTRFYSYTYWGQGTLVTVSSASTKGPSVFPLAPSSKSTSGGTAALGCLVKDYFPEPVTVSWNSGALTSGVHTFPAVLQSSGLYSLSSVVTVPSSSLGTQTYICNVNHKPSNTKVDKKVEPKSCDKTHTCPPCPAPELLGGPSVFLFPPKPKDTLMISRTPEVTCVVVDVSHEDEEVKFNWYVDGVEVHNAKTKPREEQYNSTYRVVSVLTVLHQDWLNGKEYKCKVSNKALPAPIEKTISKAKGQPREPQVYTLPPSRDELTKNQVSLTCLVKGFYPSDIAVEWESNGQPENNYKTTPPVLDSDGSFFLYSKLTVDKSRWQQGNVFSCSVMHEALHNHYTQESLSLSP
light: B1 light
notes: also called Ho Ab P271_10E
B22: GpH7-B3 variant P331_16H/GpL16-k0 (antibody, human IgG1, kappa)
heavy: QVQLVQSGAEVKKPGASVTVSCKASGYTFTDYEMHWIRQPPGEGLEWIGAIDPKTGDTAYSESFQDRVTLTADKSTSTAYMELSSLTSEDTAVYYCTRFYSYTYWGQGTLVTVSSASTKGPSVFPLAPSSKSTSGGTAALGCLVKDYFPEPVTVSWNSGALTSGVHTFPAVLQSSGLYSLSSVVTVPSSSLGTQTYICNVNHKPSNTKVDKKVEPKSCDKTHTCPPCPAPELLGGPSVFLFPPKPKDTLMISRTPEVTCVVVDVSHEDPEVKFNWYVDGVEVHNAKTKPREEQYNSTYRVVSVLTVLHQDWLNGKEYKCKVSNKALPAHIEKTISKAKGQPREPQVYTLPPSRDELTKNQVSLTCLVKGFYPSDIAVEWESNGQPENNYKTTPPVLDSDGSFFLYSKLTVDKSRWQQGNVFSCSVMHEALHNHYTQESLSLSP
light: B1 light
notes: also called Ho Ab P331_16H
B23: GpH7-B3 variant P238_09D/GpL16-k0 (antibody, human IgG1, kappa)
heavy: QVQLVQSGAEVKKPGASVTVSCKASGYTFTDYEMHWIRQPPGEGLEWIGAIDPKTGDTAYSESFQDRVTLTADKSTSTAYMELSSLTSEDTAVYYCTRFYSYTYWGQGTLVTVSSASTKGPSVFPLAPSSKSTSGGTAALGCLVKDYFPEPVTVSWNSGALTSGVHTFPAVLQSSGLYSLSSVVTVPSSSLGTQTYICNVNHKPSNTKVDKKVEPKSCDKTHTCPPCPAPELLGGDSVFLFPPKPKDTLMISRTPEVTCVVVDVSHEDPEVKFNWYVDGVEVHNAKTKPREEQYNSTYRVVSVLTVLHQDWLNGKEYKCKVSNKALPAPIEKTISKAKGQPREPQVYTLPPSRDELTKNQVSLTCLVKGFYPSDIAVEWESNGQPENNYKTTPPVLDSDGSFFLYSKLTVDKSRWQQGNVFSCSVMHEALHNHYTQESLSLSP
light: B1 light
notes: also called Ho Ab P238_09D
B24: GpH7-B3 variant P238_06M/GpL16-k0 (antibody, human IgG1, kappa)
heavy: not shown
light: B1 light
notes: also called Ho Ab P238_06M
B25: GpH7-B3 variant L328_10E/GpL16-k0 (antibody, human IgG1, kappa)
heavy: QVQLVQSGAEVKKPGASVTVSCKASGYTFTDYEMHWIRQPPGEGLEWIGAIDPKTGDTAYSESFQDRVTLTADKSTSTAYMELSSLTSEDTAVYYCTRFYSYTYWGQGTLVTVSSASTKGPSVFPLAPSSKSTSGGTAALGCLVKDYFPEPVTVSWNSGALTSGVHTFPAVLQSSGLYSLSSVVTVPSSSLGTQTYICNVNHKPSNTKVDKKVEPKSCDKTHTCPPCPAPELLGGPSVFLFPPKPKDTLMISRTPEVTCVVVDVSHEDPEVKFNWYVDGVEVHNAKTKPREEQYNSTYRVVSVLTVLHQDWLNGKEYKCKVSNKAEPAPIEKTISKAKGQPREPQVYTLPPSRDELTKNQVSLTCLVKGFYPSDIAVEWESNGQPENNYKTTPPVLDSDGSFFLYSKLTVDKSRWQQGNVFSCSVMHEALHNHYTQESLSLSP
light: B1 light
notes: also called Ho Ab L328_10E
B26: GpH7-B3 variant P238_20W/GpL16-k0 (antibody, human IgG1, kappa)
heavy: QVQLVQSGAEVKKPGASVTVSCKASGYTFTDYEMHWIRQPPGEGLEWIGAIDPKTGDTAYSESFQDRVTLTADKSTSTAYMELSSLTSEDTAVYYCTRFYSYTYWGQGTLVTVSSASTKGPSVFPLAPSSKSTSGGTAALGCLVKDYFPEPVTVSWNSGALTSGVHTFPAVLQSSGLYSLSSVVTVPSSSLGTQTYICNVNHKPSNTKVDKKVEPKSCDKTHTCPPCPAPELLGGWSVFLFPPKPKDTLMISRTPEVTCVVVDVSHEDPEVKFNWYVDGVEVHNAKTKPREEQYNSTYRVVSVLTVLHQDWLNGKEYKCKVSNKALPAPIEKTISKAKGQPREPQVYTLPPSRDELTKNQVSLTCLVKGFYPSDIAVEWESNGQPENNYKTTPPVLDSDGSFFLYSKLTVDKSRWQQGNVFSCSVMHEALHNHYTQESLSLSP
light: B1 light
notes: also called Ho Ab P238_20W

This test concerns the target T1, FcγRIIb extracellular domain with C-terminal His tag (human, UniProt P31994 43-217).
T1 construct: extracellular domain; also called FcgRIIb; 2b
T1 sequence (looked up): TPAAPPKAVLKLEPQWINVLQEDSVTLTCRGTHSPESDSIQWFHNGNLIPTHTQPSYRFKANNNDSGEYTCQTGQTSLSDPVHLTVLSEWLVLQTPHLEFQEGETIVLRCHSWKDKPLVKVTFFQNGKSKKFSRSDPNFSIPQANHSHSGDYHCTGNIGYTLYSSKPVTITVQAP
Kind of test: SPR (Biacore), relative binding. Here is the method: Analysis of interaction between objective antibody and the FcγR was carried out using Biacore T100 (GE Healthcare). HBS-EP+ (GE Healthcare) was used as the running buffer, and the measurement temperature was set to 25° C. Chips produced by immobilizing the antigen peptide by the amine coupling method to a Series S Sencor Chip CM5 (GE Healthcare), or alternatively, chips produced by allowing preliminarily biotinylated antigen peptides to interact with and immobilize onto a Series S Sensor Chip SA (certified) (GE Healthcare) were used. Antibodies of interest were captured onto an antigen peptide-immobilized chip, and allowed to interact to each FcγR diluted with running buffer. To regenerate and repeatedly use the chip, the antibodies captured on the chip were washed off by reacting 10 mM glycine-HCl, pH 1.5.
Background: SPR reads the build-up and loss of mass on a sensor chip optically.
As to B1, the Ho/Con_2b was 83.1 % of HoCon Ab GpH7-B3/GpL16-k0.

As to B2, the Ho/Con_2b is 44 % of HoCon Ab GpH7-B3/GpL16-k0.

In the case of B3, the Ho/Con_2b is 114 % of HoCon Ab GpH7-B3/GpL16-k0.

Consider B4, for which the Ho/Con_2b is 106 % of HoCon Ab GpH7-B3/GpL16-k0.

As to B5, the Ho/Con_2b was 116 % of HoCon Ab GpH7-B3/GpL16-k0.

Regarding B6, the Ho/Con_2b was 104 % of HoCon Ab GpH7-B3/GpL16-k0.

For B7, the Ho/Con_2b was 90.1 % of HoCon Ab GpH7-B3/GpL16-k0.

B8: the Ho/Con_2b is 159 % of HoCon Ab GpH7-B3/GpL16-k0.

Consider B9, for which the Ho/Con_2b is 20.2 % of HoCon Ab GpH7-B3/GpL16-k0.

B10: the Ho/Con_2b was 106 % of HoCon Ab GpH7-B3/GpL16-k0.

Turning to B11, the Ho/Con_2b was 77 % of HoCon Ab GpH7-B3/GpL16-k0.

For B12, the Ho/Con_2b is 109 % of HoCon Ab GpH7-B3/GpL16-k0.

In the case of B13, the Ho/Con_2b was 111 % of HoCon Ab GpH7-B3/GpL16-k0.

In the case of B14, the Ho/Con_2b was 92.3 % of HoCon Ab GpH7-B3/GpL16-k0.

Regarding B15, the Ho/Con_2b is 97.9 % of HoCon Ab GpH7-B3/GpL16-k0.

Consider B16, for which the Ho/Con_2b is 159 % of HoCon Ab GpH7-B3/GpL16-k0.

B17: the Ho/Con_2b is 168 % of HoCon Ab GpH7-B3/GpL16-k0.

Take B18: the Ho/Con_2b is 147 % of HoCon Ab GpH7-B3/GpL16-k0.

Take B19: the Ho/Con_2b was 54.9 % of HoCon Ab GpH7-B3/GpL16-k0.

Turning to B20, the Ho/Con_2b is 117 % of HoCon Ab GpH7-B3/GpL16-k0.

With B21, the Ho/Con_2b is 95 % of HoCon Ab GpH7-B3/GpL16-k0.

Turning to B22, the Ho/Con_2b is 100 % of HoCon Ab GpH7-B3/GpL16-k0.

With B23, the Ho/Con_2b is 207 % of HoCon Ab GpH7-B3/GpL16-k0.

In the case of B24, the Ho/Con_2b is 97.1 % of HoCon Ab GpH7-B3/GpL16-k0.

As to B25, the Ho/Con_2b was 146 % of HoCon Ab GpH7-B3/GpL16-k0.

In the case of B26, the Ho/Con_2b was 12.6 % of HoCon Ab GpH7-B3/GpL16-k0.
